Measured values published in US20210205462A1, “Translocation into Eukaryotic Cells” (The University Court of the University of Aberdeen, priority 2018, published 2021).

Columns and labels:
RTG-2 cells = assay: Translocation mechanism study with uptake pathway inhibitors in RTG-2 cells; format: cell-based, rainbow trout; settings: 80 μM dynasore, 1× Brefeldin A or 100 μM nystatin pre-incubation; 3 μM SpHtp1^24-68-mRFP 1 h at 18° C.
Protocol: (§1) Cell culture maintenance of fish RTG-2 (ATCC CCL-55) was done according to the manufacturer's or publisher's instructions. L-15 medium was supplemented with 10% FBS, 100 units/ml Penicillin and 100 μg/ml Streptomycin. Wells containing cover slips with attached cells of 80% confluent were washed 2× with HBSS before translocation experiments.
For experiments investigating translocation mechanism, cells were pre-incubated with various inhibitors (80 μM of dynasore, 1× Brefeldin A or 100 μM nystatin) for 1 h at 18° C., 2 h for dynasore (FIG. 2). Afterwards, 3 μM SpHtp1^24-68-mRPF were incubated for another 1 h at 18° C. For the time course experiment (FIG. 2) cells were pre-incubated with 10 μM dynasore and the incubation with 3 μM SpHtp1^24-68-mRPF at 18° C. stopped at the times as indicated. In order to investigate the influence of SpHtp1^24-198-His on the vesicle release of SpHtp3^21-211-RFP, 3 μM of each protein was pre-incubated in L-15 for 30 min at RT before added to the cells for the usual incubation of 1 h at 18° C.
(§2) After incubation human as well as fish cells were washed 3× with HBSS and fixed with 4% ice-cold PFA in PBST (PBS+0.1% tween) for 15 min at RT. Residual PFA was removed with 5× washing steps with PBS. Cells were mounted with Vectashield with DAPI. Samples were analysed by a Zeiss LSM710 confocal microscope or an epifluorescence microscope (Zeiss Imager M2 with metal halide light source). For quantification mean intensity or vesicles per cell were counted with ImageJ. A maximum of 5 cells were analysed from the same picture. Bars denote s.e.m of 50 cells counted per sample.

human A549 cells [1] = assay: Inhibitor studies of SpHtp1^24-68-mRFP translocation into A549 cells; format: cell-based
Protocol: as §1, with “human A549 cell,” for “fish RTG-2 (ATCC CCL-55)”, “DMEM” for “L-15”, “before the” for “before”
For the inhibitor studies, A549 cells were pre-incubated with different concentrations of SCH-202676 (allosteric inhibitor via disulfhydryl group) as indicated for 1 h at 37° C. and after this incubated for another 1 h at 37° C. with 3 μM SpHtp1^24-68-mRPF.
as §2

β2-adrenergic receptor [2] = molecular target: T1, β2-adrenergic receptor (Homo sapiens, UniProt P07550)
human A549 cells [3] = assay: Translocation of SpHtp1^24-68-mRFP into human A549 cells; format: cell-based; settings: see FIG. 2A, 2C
Protocol: as §1, with “human A549 cell,” for “fish RTG-2 (ATCC CCL-55)”, “DMEM” for “L-15”, “before the” for “before”
For translocation experiments using SpHtp1-coupled microparticles (FIG. 1), 300 μg carbon beads were pre-incubated with 3 μM SpHtp1^24-68-mRPF in 300 μl DMEM without Fetal Calf Serum for 1 h at 37° C. on a rotator to couple the SpHtp1 translocation sequence to the particles. […] Following coupling, the supplemented medium was applied to the cells for 1 h at 37° C. For translocation experiments using SpHtp1^24-68-mRPF (FIG. 2) cells were incubated with 3 μm SpHtp1^24-68-mRPF for 1 h at 37° C.
as §2

SpHtp3 = assay: Protein cross linking of SpHtp1 and SpHtp3; format: binding, Saprolegnia parasitica; settings: PFA cross link; FIG. 5E
Protocol: In order to detect a direct interaction, 10 μg of SpHtp1 and 10 μg of SpHtp3 or each protein alone were pre-incubated in PBS (total: 15 μl) for 15 min at RT. For cross linking 15 μl ice-cold 4% PFA/PBS (final concentration: 2%) was added and incubated for 10 min at RT. The reaction was stopped with 7 μl Laemmli loading dye and subsequent heating to 65° C. for 10 min. Complex formation was investigated by SDS-PAGE and confirmed by LC-MS/MS.

cells = assay: Cytotoxic effects, cell morphology and viability after extended incubation; format: cell-based; settings: extended incubation periods of up to 24 hours
[4] = test system: human cells (such as HEK cells or the human epithelial lung cell line A549); assay: Translocation into human cells; format: cell-based
β2-adrenergic receptor [5] = molecular target: T1, β2-adrenergic receptor; assay: Co-immunoprecipitation with anti-β2 adrenoceptor antibody; format: binding; parameters: confluent A549 cells from a 75 cm^2 flask where detached and resuspended in 500 μl PBS; The cells were lysed by sonication; endogenous in cells; host or cells: A549 (human lung epithelial cell line), sonicated lysate supernatant; settings: A549 lysate, 10 μM SpHtp1^24-68-RFP; FIG. 3C
Protocol: For co-immunoprecipitation (FIG. 3) confluent A549 cells from a 75 cm^2 flask where detached and resuspended in 500 μl PBS. The cells were lysed by sonication (3×30 sec, 30% intensity, 1 min break on ice) and cell debris removed by centrifugation (16,000×g, 25 min, 4° C.). The supernatant was supplemented with 10 μM SpHtp1^24-68-RFP and 2.5 μg of an anti-82 adrenoceptor and incubated overnight on rotator at 4° C. The next day 200 μl PBS-equilibrated protein G/A beads were added for 2.5 h on rotator at 4° C. After, beads were washed 5 times with 1 ml PBS each. The elution was done with SDS sample buffer and boiling at 95° C. for 10 min.
For the immunoblot, samples were transferred to a nitrocellulose membrane and blocked with 5% milk powder in PBST (PBS+0.1% tween) for 1 h at RT. Incubation of the first antibody (anti-(32 adrenoceptor, 1:200) was done overnight on rotator at 4° C. Excess of antibody was removed by 3 washing steps with PBST, 5 min each. The secondary antibody (anti-rabbit HRP-coupled, 1:1000) was incubated for 1 h at RT in PBST with 5% milk powder. The membrane was washed 4 times (2×PBST and 2×PBS) before the bands were visualised with an ECL substrate and a developer.

fish cells = assay: Translocation into fish cells; format: cell-based

C[C@H]1CCC/C=C/[C@@H]2C[C@H](O)C[C@H]2[C@H](O)/C=C/C(=O)O1 [Brefeldin A]
effect on SpHtp1^24-68-mRFP translocation (RTG-2 cells): no effect

CN=c1nc(-c2ccccc2)n(-c2ccccc2)s1 [SCH-202676]
binding of SpHtp1^24-68-mRFP to the cells after pre-incubation with inhibitor (human A549 cells [1]; 10 μM SCH-202676, FIG. 3A): not influenced
translocation of SpHtp1^24-68-mRFP into cells after pre-incubation with inhibitor (human A549 cells [1]; 10 μM SCH-202676, FIG. 3A): inhibited
concentration dependence of inhibition of translocation (human A549 cells [1]; different concentrations, 1 h at 37° C., FIG. 3B): concentration-dependent

CNCC(O)c1ccc(O)c(O)c1 (stereo not drawn) [adrenalin]
effect of endogenous receptor ligands on the uptake of SpHtp1 (human A549 cells [1]): do not have an effect

O=C(N/N=C/c1ccc(O)c(O)c1)c1cc2ccccc2cc1O [dynasore]
effect on SpHtp1^24-68-mRFP translocation (RTG-2 cells): accumulation of red fluorescence at the membrane

NC[C@H](O)c1ccc(O)c(O)c1 [noradrenalin]
effect of endogenous receptor ligands on the uptake of SpHtp1 (human A549 cells [1]): do not have an effect

C[C@@H]1[C@H](O)[C@@H](C)/C=C/C=C/CC/C=C/C=C/C=C/C=C/C(O[C@H]2O[C@H](C)[C@@H](O)[C@H](N)[C@@H]2O)CC2O[C@](O)(CC(O)C(O)CCC(O)CC(O)CC(O)CC(=O)O[C@H]1C)CC(O)C2C(=O)O (stereo partly drawn) [nystatin]
effect on SpHtp1^24-68-mRFP translocation (RTG-2 cells): no effect

SpHtp1^24-68-mRFP
uptake into the cell, EC50 (β2-adrenergic receptor [2]): 1230 nM

B1: SpHtp1: putative effector protein from the fish pathogenic oomycete Saprolegnia parasitica, full-length 198 amino acids (protein)
chain: MRIHHPLTLAALCVVLHESLGAAQHSNNVARLEHYRIAEIEHWEKRHLRSDSRGHRHHAHHGQVIDKENNNSQEQATTGNSVETNQVPSTEPTKDKTTPMKNALFKLFREKKLKTKNAGNGHAHDDDDDSDFSDDDVPTNAPTDAPTGAPTDAPTDAPTVAPTDAPTDAPTEAPTNAPTGTDAPTDAPTDAQVVPTFD
modifications: SpHtp1 (1-198)
EC50 (human A549 cells [3]; cell line not given, read-out: uptake into the cell, EC50): 1230 nM
time of binding of SpHtp1 to the cell surface (human A549 cells [3]): 5 to 10 min
time to significant uptake into the cell (human A549 cells [3]): 20 to 30 min
in vitro complex formation after cross link (SDS-PAGE, LC-MS/MS) (SpHtp3): additional band for a cross-linked SpHtp1-SpHtp3 complex
cytotoxic effects, cell morphology, viability (cells): do not have any immediate cytotoxic effects on cells, and do not alter cell morphology or viability
entry into human cells ([4]; via the β-adrenoceptor): able to enter human cells
interaction with the β2-adrenergic receptor by co-immunoprecipitation (β2-adrenergic receptor [5]): at least indirect interaction

B2: SpHtp1a: SpHtp1 homolog shown in FIG. 6 (protein)
chain: MRIYHPLTLAALCVVLHESLGAAQHSNNVARLEHYSVAEIEHWEKRHLRNSDSRGHRHHAHHGQVIDKENNNSQEQATTGNSVETNQVPFTQPTKDKTASIKTAVFKLLRENKLKTKNAGNGHAHDDDDDDDSNFSDDDVPTNAPTGAPTGAPTDAPTNAPTDAPTDAPTDAPTDAPTDAPTDAPTDAPTTLPPMPRRRSHRCPDRHSHRCDPRRTHGCPD
modifications: SpHtp1a (1-221)
translocation into fish cells (fish cells): able to translocate into both fish and human cells
translocation into human cells [4]: able to translocate into both fish and human cells
